According to paper PMC2928751 (2010):

B1: Gli3(280-478), wild type [modified: [35S]-methionine labelled; [35S]-methionine labelled] [human] / GST-JNK1 [human] (parent complex)
chain 1: SSPRLSARPSRKRTLSISPLSDHSFDLQTMIRTSPNSLVTILNNSRSSSSASGSYGHLSASAISPALSFTYSSAPVSLHMHQQILSRQQSLGSAFGHSPPLIHPAPTFPTQRPIPGIPTVLNPVQVSSGPSESSQNKPTSESAVSSTGDPMHNKRSKIKPDEDLPSPGARGQQEQPEGTTLVKEEGDKDESKQEPEVIY
chain 2: MSRSKRDNNFYSVEIGDSTFTVLKRYQNLKPIGSGAQGIVCAAYDAILERNVAIKKLSRPFQNQTHAKRAYRELVLMKCVNHKNIIGLLNVFTPQKSLEEFQDVYIVMELMDANLCQVIQMELDHERMSYLLYQMLCGIKHLHSAGIIHRDLKPSNIVVKSDCTLKILDFGLARTAGTSFMMTPYVVTRYYRAPEVILGMGYKENVDLWSVGCIMGEMVCHKILFPGRDYIDQWNKVIEQLGTPCPEFMKKLQPTVRTYVENRPKYAGYSFEKLFPDVLFPADSEHNKLKASQARDLLSKMLVIDASKRISVDEALQHPYINVWYDPSEAEAPPPKIPDKQLDEREHTIEEWKELIYKEVMDLEERTKNGVIRGQPSPLAQVQQ
B2: Gli3(280-478), wild type [modified: [35S]-methionine labelled; [35S]-methionine labelled] [human] / GST-JNK3 [human] (parent complex)
chain 1: B1 chain 1
chain 2: MSLHFLYYCSEPTLDVKIAFCQGFDKQVDVSYIAKHYNMSKSKVDNQFYSVEVGDSTFTVLKRYQNLKPIGSGAQGIVCAAYDAVLDRNVAIKKLSRPFQNQTHAKRAYRELVLMKCVNHKNIISLLNVFTPQKTLEEFQDVYLVMELMDANLCQVIQMELDHERMSYLLYQMLCGIKHLHSAGIIHRDLKPSNIVVKSDCTLKILDFGLARTAGTSFMMTPYVVTRYYRAPEVILGMGYKENVDIWSVGCIMGEMVRHKILFPGRDYIDQWNKVIEQLGTPCPEFMKKLQPTVRNYVENRPKYAGLTFPKLFPDSLFPADSEHNKLKASQARDLLSKMLVIDPAKRISVDDALQHPYINVWYDPAEVEAPPPQIYDKQLDEREHTIEEWKELIYKEVMNSEEKTKNGVVKGQPSPSAQVQQ

Variants of: B1
Test: GST pull-down of in vitro translated protein, quantified; 30 µg GST-JNK1; read off a plot

| Variant | response |
| --- | --- |
| chain 1 R11A, chain 1 K12A, chain 1 R13A, chain 1 L15A, chain 1 I17A | ~0.2 % of input (axis unlabelled; 5% input bar = 5) |

Variants of: B2
Test: GST pull-down of in vitro translated protein, quantified; 20 µg GST-JNK3; read off a plot

| Variant | response |
| --- | --- |
| chain 1 R11A, chain 1 K12A, chain 1 R13A, chain 1 L15A, chain 1 I17A | ~0.35 % of input (axis unlabelled; 5% input bar = 5) |
